Residue numbers refer to the chain shown, from its start. Numbers in names are those of the source.
Legend:
[1] = biological target: T1, recombinant biotinylated monomeric Fc fusion of cynomolgus Folate Receptor 1 (cy FolR1 ECD-AcTev-Fcknob-Avi … (cynomolgus, UniProt P0DOX5 223-449 = IgG part, biotin on the C-terminal Avi tag)); assay: SPR ProteOn, Fab analyte on immobilized antigen-Fc
T1 construct: also called cyFolR1-Fc; cyno FolR1
Experimental: (§1) Immobilization of antigens (ligand): Recombinant antigens were diluted with PBST (10 mM phosphate, 150 mM sodium chloride pH 7.4, 0.005% Tween 20) to 10 μg/ml, then injected at 30 μl/minute in vertical orientation. Injection of analytes: For ‘one-shot kinetics’ measurements, injection direction was changed to horizontal orientation, two-fold dilution series of purified Fab (varying concentration ranges) were injected simultaneously along separate channels 1-5, with association times of 150 or 200 s, and dissociation times of 200 or 600 s, respectively. Buffer (PBST) was injected along the sixth channel to provide an “in-line” blank for referencing. Association rate constants (kₒₙ) and dissociation rate constants (koff) were calculated using a simple one-to-one Langmuir binding model in ProteOn Manager v3.1 software by simultaneously fitting the association and dissociation sensorgrams. The equilibrium dissociation constant (KD) was calculated as the ratio koff/kₒₙ.

[2] = biological target: T2, recombinant biotinylated monomeric Fc fusion of murine Folate Receptor 1 (mu FolR1 ECD-AcTev-Fcknob-Avitag … (murine, UniProt P0DOX5 223-449 = IgG part, biotin on the C-terminal Avi tag)); assay: SPR ProteOn, Fab analyte on immobilized antigen-Fc
T2 construct: also called muFolR1-Fc; murine FolR1
Experimental: as §1

[3] = biological target: T3, recombinant biotinylated monomeric Fc fusion of human Folate Receptor 3 (hu FolR3 ECD-AcTev-Fcknob-Avi tag … (human, UniProt P0DOX5 223-449 = IgG part, biotin on the C-terminal Avi tag)); assay: SPR ProteOn, Fab analyte on immobilized antigen-Fc
T3 construct: also called FolR3-Fc
Experimental: as §1

[4] = biological target: T4, recombinant biotinylated monomeric Fc fusion of human Folate Receptor 1 (huFolR1 ECD-AcTev-Fcknob-Avi tag … (human, UniProt P0DOX5 223-449 = IgG part, biotin on the C-terminal Avi tag)); assay: SPR ProteOn, Fab analyte on immobilized antigen-Fc
T4 construct: also called huFolR1-Fc; human FolR1-Fc
Experimental: as §1

[5] = biological target: T5, recombinant biotinylated monomeric Fc fusion of human Folate Receptor 2 (hu FolR2 ECD-AcTev-Fcknob-Avi tag … (human, UniProt P0DOX5 223-449 = IgG part, biotin on the C-terminal Avi tag)); assay: SPR ProteOn, Fab analyte on immobilized antigen-Fc
T5 construct: also called FolR2-Fc
Experimental: as §1

[6] = biological target: T6, human FolR1 expressed on cells (HeLa, SKOV3, HT-29, transfected HEK cells) (human, UniProt P15328 25-234); assay: cell-based or functional assay
[7] = biological target: T1, recombinant biotinylated monomeric Fc …; assay: SPR Biacore, affinity (monovalent), antibody captured via anti-Fab, steady state analysis
Experimental: (§2) All SPR experiments were performed on a Biacore T200 at 25° C. with HBS-EP as running buffer (0.01 M HEPES pH 7.4, 0.15 M NaCl, 3 mM EDTA, 0.005% Surfactant P20, Biacore, GE Healthcare). The molecules used for affinity and avidity determination are described in Table 45.
(§3) For affinity measurement, direct coupling of around 12000 resonance units (RU) of the anti-human Fab specific antibody (Fab capture kit, GE Healthcare) was performed on a CM5 chip at pH 5.0 using the standard amine coupling kit (GE Healthcare). Anti-FolR1 T cell bispecifics were captured at 20 nM with a flow rate of 10 μl/min for 40 sec, the reference flow cell was left without capture. […] The dissociation phase was monitored for 300 s and triggered by switching from the sample solution to HBS-EP. The chip surface was regenerated after every cycle using a double injection of 60 sec 10 mM Glycine-HCl pH 2.1. Bulk refractive index differences were corrected for by subtracting the response obtained on the reference flow cell 1. The affinity constants for the interactions were derived from the rate constants by fitting to a 1:1 Langmuir binding using the Bia Evaluation software (GE Healthcare). For low affinity kinetics with association and dissociation phases too fast to be fitted by the 1:1 Langmuir binding model, the steady state analysis model was applied using the Bia Evaluation software (GE Healthcare). The steady state analysis gives the KD of the binding reaction at equilibrium.

[8] = biological target: T4, recombinant biotinylated monomeric Fc …; assay: SPR Biacore, affinity (monovalent), antibody captured via anti-Fab
Experimental: as §2, §3

[9] = biological target: T4, recombinant biotinylated monomeric Fc …; assay: SPR Biacore, avidity (bivalent)
[10] = biological target: T4, recombinant biotinylated monomeric Fc …; assay: SPR Biacore, affinity (monovalent)
[11] = biological target: T6, human FolR1 expressed on cells (HeLa, …); assay: cell-based or functional assay; remark: listed apart in the source
[12] = biological target: T1, recombinant biotinylated monomeric Fc …; assay: SPR Biacore, avidity (bivalent, apparent KD), antigen-Fc on SA chip
Experimental: as §2
(§4) Recombinant biotinylated monomeric Fc fusions of human, cynomolgus and murine Folate Receptor 1 (FolR1-Fc) were directly coupled on a SA chip using the standard coupling instruction (Biacore, GE Healthcare). The immobilization level was about 200-300 RU. […] The dissociation was monitored for 240 or 600 seconds. The chip surface was regenerated after every cycle using a double injection of 30 sec 10 mM Glycine-HCl pH 1.5. Bulk refractive index differences were corrected for by subtracting the response obtained on reference flow cell immobilized with recombinant biotinylated murine IL2R Fc fusion (unrelated Fc fused receptor). The binding curves resulting from the bivalent binding of the T cell bispecifics were approximated to a 1:1 Langmuir binding (even though it is a 1:2 binding) and fitted with that model to get an apparent KD representing the avidity of the bivalent binding. The apparent avidity constants for the interactions were derived from the rate constants of the fitting using the Bia Evaluation software (GE Healthcare).

[13] = biological target: T4, recombinant biotinylated monomeric Fc …; assay: as above
Experimental: as §2, §4

[14] = biological target: T1, recombinant biotinylated monomeric Fc …; assay: SPR Biacore, single injection on immobilized antigen-Fc
Outline: (§5)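 Biacore T200 at 25 °C in HBS-EP (HEPES pH 7.4). Biotinylated FolR-Fc fusions captured on SA chip at about 300-400 RU. IgGs injected once at 500 nM for 60 s to assess cross-reactivity and specificity.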

[15] = biological target: T3, recombinant biotinylated monomeric Fc …; assay: as above
Outline: as §5

[16] = biological target: T4, recombinant biotinylated monomeric Fc …; assay: as above
Outline: as §5

[17] = biological target: T5, recombinant biotinylated monomeric Fc …; assay: as above
Outline: as §5

T6 sequence (P15328 25-234): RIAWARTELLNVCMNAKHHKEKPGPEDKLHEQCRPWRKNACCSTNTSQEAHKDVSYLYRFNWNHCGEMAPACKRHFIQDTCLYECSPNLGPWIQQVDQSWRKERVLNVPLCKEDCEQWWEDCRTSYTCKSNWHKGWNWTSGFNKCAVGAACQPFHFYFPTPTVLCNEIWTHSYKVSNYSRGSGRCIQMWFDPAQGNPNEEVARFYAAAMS

B1: 9D11 Fab (Fab, V domains shown)
VH: QVQLVQSGAEVKKPGASVKVSCKASGYTFTSYYMHWVRQAPGQGLEWMGIINPSGGPTSYAQKFQGRVTMTRDTSTSTVYMELSSLRSEDTAVYYCARGDFAWLDYWGQGTLVTVSS
VL: not shown
notes: bacterial Fab
[1]
  Kd: 5.29 nM
[2]
  binding result: no binding
[3]
  binding result: no binding
[4]
  Kd: 8.64 nM
[5]
  binding result: no binding

B2: 14E4 Fab (Fab, V domains shown)
VH: not shown
VL: EIVLTQSPGTLSLSPGERATLSCRASQSVSSSYLAWYQQKPGQAPRLLIYGASSRATGIPDRFSGSGSGTDSTLTISRLEPEDFAVYYCQQPTSSPITFGQGTKVEIK
notes: bacterial Fab
[1]
  binding result: no binding
[3]
  binding result: no binding
[4]
  binding result: no binding
[5]
  binding result: no binding

B3: 36F2 Fab (Fab, V domains shown)
VH: QVQLVQSGAEVKKPGASVKVSCKASGYTFTSYYMHWVRQAPGQGLEWMGIINPSGGSTSYAQKFQGRVTMTHDTSTSTVYMELSSLRSEDTAVYYCARSFFTGFHLDYWGQGTLVTVSS
VL: EIVLTQSPGTLSLSPGERATLSCRASQSVSSSYLAWYQQKPGQAPRLLIYGASSRATGIPDRFSGSGSGTDFTLTISRLEPEDFAVYYCQQYTNEHYYTFGQGTKVEIK
notes: bacterial Fab
[1]
  Kd: 1640 nM
[2]
  Kd: 737 nM
[3]
  binding result: no binding
[4]
  Kd: 1810 nM
[5]
  binding result: no binding

B4: 16D5 G49S/K53A TCB (2+1 inverted, common light chain) (bispecific antibody, V domains shown)
VH 1: not shown
VL: QTVVTQEPSLTVSPGGTVTLTCGSSTGAVTTSNYANWVQQKPGQAPRGLIGGTNARAPGTPARFSGSLLGGKAALTLSGVQPEDEAEYYCALWYSNLWVFGGGTKLTVL
VH 2: not shown
[6]
  EC50 of T-cell killing of Hela, 24 h: 0.0044 nM
  EC50 of T-cell killing of SKov-3, 24 h: 1.7 nM
[7]
  Kd: 1900 nM
[8]
  Kd: 1700 nM
  koff: 0.0159 s⁻¹
  kon: 9170 M⁻¹ s⁻¹
[9]
  fold lower avidity than 16D5 WT (3 nM): 13 fold
[10]
  fold lower affinity than 16D5 WT (57 nM): 30 fold
[11]
  EC50 of T-cell killing of HT-29, 48 h: 1.79 nM
  EC50 of T-cell killing of Hela, 48 h: 0.0005 nM
  EC50 of T-cell killing of SKov-3, 48 h: 0.95 nM
[12]
  Kd: 70 nM
  koff: 0.0256 s⁻¹
  kon: 373000 M⁻¹ s⁻¹
[13]
  Kd: 40 nM
  koff: 0.00586 s⁻¹
  kon: 132000 M⁻¹ s⁻¹

B5: 20G6 IgG (antibody, V domains shown)
VH: QVQLVQSGAEVKKPGASVKVSCKASGYTFTSYYMHWVRQAPGQGLEWMGIINPSGGSTSYAQKFQGRVTMTRDTSTSTVYMELSSLRSEDTAVYYCARGEWIRYYHFDYWGQGTLVTVSS
VL: B4 VL with T2A, Q40E, P46F, A55K, V80A
notes: human IgG1
[14]
  binding result: no binding (tested: 500 nM)
[15]
  binding result: no binding (tested: 500 nM)
[16]
  binding result: no binding (tested: 500 nM)
[17]
  binding result: no binding (tested: 500 nM)

B6: 19H3 IgG (antibody, V domains shown)
VH: B5 VH with G99T, E100G, I102S, Y104W, Y105G, H106Y, F107M
VL: B4 VL with T2A, Q40E, P46F, A55K, V80A
notes: human IgG1
[14]
  binding result: no binding (tested: 500 nM)
[15]
  binding result: no binding (tested: 500 nM)
[16]
  binding result: no binding (tested: 500 nM)
[17]
  binding result: no binding (tested: 500 nM)
